In paper PMC4265266:
“And” between values parts separate entries of the source, which are not always exact repeats. Equal entries are not always repeated.

Biological target: FLAG-tagged recombinant human butyrylcholinesterase (^FLAGBChE) (human) (UniProt P06276)
Test: non-reducing SDS-PAGE with immuno

With “FLAG-tagged recombinant human butyrylcholinesterase (^FLAGBChE) (from UniProt P06276 29-602) (enzyme)” as the substance, how does the stoichiometry N read?
Its stoichiometry N is 2 and 4.
